Laboratory results reported in patent EP1724589A2.

Key:
S-100b [1] = test: ELISA: S-100b coated at 500 ng/well, sRAGE at 1.0 x 10^-4 mg/ml, detected with anti-sRAGE antibody complex
S-100b [2] = test: ELISA: 88 wells coated with S-100b at 500 ng/well, sRAGE at 2.2 x 10^-4 mg/ml, polyclonal anti-sRAGE detection (Figure 7)
S-100b [3] = test: ELISA saturation curve with Scatchard analysis (Figure 8): S-100b coated at 50 ng/well, sRAGE about 0.3 to 10 nM, high affinity component
S-100b [4] = test: ELISA saturation curve with Scatchard analysis (Figure 9): S-100b coated at 100 ng/well, sRAGE about 0.3 to 10 nM, high affinity component
S-100b [5] = test: ELISA saturation curves with Scatchard analysis (Figures 10 and 11): S-100b coated at 500 and 100 ng/well, sRAGE about 23 to 470 nM or 5 to 76 nM, low affinity site

OD (maximal signal) (S-100b [1]): 1.06 OD
average OD405 (S-100b [2]): 0.705 OD405
Kd (S-100b [3]): 6 nM
Kd (S-100b [4]): 2 nM
Kd (S-100b [5]): 60 nM
Substance: soluble RAGE (sRAGE), the soluble, extracellular portion of human Receptor for Advanced Glycated Endproducts (from UniProt Q15109 23-339)
